According to patent publication US20230241257A1, “BIOTIN-MODIFIED DIMER AND USE THEREOF” (THE UNIVERSITY OF TOKYO, priority 2020, published 2023):
Blank lines part the entries; values can stand above or below the molecule they belong to.

Assays:
[1] = molecular target: T1, Recombinant Human CEACAM-5/CD66e Protein, CF (R & D SYSTEMS) (human, UniProt P06731 35-685); test: SPR, Biacore T200, CEACAM5 immobilized on CM5, CEA-V2122 as analyte, single-cycle kinetics, bivalent analysis fit (KD = kd1/ka1)
T1 construct: Bought recombinant protein, immobilized on a CM5 chip by amine coupling (279 RU); also called carcinoembryonic antigen
T1 sequence (looked up): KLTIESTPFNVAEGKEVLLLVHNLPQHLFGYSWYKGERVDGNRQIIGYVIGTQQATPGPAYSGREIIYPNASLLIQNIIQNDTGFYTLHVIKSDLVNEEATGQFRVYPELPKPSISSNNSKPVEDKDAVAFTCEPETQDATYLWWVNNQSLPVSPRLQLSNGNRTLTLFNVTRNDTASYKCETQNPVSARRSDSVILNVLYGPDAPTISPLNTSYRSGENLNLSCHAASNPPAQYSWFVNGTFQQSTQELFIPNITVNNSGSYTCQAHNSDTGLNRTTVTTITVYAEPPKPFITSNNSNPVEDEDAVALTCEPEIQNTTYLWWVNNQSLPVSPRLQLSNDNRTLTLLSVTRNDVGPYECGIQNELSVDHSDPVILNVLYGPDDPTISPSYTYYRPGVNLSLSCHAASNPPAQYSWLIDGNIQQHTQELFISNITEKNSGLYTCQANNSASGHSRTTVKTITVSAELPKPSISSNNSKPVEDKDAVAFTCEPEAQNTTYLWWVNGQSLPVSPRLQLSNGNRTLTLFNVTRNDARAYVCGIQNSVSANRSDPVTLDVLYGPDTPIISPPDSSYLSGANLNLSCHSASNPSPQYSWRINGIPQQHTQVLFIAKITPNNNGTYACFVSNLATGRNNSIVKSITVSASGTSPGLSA
Description: (§1) The affinity of CEA-V2122 for the antigen CEACAM5 was evaluated using a surface plasmon resonance (SPR) measuring device, Biacore T200 (GE Healthcare Life Sciences). Specifically, Recombinant Human CEACAM-5/CD66e Protein, CF (R & D SYSTEMS) was immobilized on Sensor Chip CM5 (GE Healthcare Life Sciences) using an amine-coupling kit (GE Healthcare Life Sciences). The final amount of the ligand immobilized was 279 RU. Moreover, about the purified CEA-V2122, two-fold serial dilutions from 1E-08 M to 6.25E-10 M were prepared as analytes. Regarding interaction analysis, data were obtained by single-cycle kinetics analysis.

[2] = molecular target: T2, Recombinant Human CEACAM-5/CD66e Protein (Homo sapiens, UniProt P06731); test: SPR affinity of CEA-V2122 for the antigen CEACAM5 (Biacore T200); type: binding
T2 construct: purchased R & D SYSTEMS
T2 sequence (P06731 35-676): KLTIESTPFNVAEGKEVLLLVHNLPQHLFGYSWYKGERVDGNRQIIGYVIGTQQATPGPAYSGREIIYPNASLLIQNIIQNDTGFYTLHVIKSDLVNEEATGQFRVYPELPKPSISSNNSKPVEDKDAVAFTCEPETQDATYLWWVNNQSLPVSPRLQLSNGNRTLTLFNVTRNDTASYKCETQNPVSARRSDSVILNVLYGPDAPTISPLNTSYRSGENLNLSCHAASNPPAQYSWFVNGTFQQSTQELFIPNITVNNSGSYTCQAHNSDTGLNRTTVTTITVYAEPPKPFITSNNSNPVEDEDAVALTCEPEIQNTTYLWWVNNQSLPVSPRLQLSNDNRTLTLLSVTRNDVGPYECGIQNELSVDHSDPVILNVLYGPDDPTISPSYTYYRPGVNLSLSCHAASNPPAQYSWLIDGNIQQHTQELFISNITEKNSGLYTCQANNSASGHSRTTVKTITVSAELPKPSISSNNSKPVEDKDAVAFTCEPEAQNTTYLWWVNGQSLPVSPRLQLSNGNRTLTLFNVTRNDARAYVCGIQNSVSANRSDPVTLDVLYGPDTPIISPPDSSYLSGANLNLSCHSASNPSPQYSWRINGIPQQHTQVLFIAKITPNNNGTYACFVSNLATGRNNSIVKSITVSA
Description: as §1, with “analysis. Using Biacore T200 Evaluation Software, version 2.0, the obtained data were subjected to curve fitting in a bivalent analysis mode, and the following values were obtained: ka1=3.208E+5, and kd1=3.461E−7.” for “analysis.”

[3] = single-cycle kinetics, bivalent analysis mode

Kd [1]: 1.08 pM
B1: CEA-V2122 protein (scFv-type anti-CEACAM5 antibody fused to mutant streptavidin V2122 via the linker GGGGSGGGG) (scFv)
scFv: QVKLEQSGAEVVKPGASVKLSCKASGFNIKDSYMHWLRQGPGQRLEWIGWIDPENGDTEYAPKFQGKATFTTDTSANTAYLGLSSLRPEDTAVYYCNEGTPTGPYYFDYWGQGTLVTVSSGGGGSGGGGSGGGGSENVLTQSPSSMSVSVGDRVNIACSASSSVPYMHWLQQKPGKSPKLLIYLTSNLASGVPSRFSGSGSGTDYSLTISSVQPEDAATYYCQQRSSYPLTFGGGTKLEIKGGGGSGGGGAEAGITGTWSDQLGDTFIVTAGADGALTGTYENAVGGAESRYVLTGRYDSAPATDGSGTALGWTVAWKNNSKNAHSATTWSGQYVGGADAKINTQWLLTSGTTNANAWKSTLVGHDTFTKVKPSAASHHHHHH
notes: It was secreted and purified from the culture supernatant through the His tag and Protein L. The purified product is mainly a tetramer of about 150 kDa; also called Cupid-scFv antibody; CEA-Cupid

KD=kd1/ka1 ([2]; bivalent analysis): 1.078E−12
ka1 [2, 3]: 3.208E+5
kd1 [2, 3]: 3.461E−7
B2: CEA-V2122: scFv-type anti-CEACAM5 antibody bound to mutant streptavidin V2122 via amino acid linker GGGGSGGGG (SEQ ID NO: 3) (protein)
scFv: B1 scFv
